Data reported in article PMC11368889 (2024).

Molecular target: Histone H3 (H3K9me3) (Homo sapiens, UniProt P68431)
Test: fluorescence microscopy titration in fixed HEK293 cells (Hill1 fit)

B1: MPP8-Green (MPP8-mNeonGreen-NLS-MPP8) 55-117 (protein)
chain: GEDVFEVEKILDMKTEGGKVLYKVRWKGYTSDDDTWEPEIHLEDCKEVLLEFRKKIAENKAKA
  Kd: 490 nM
